In PMC4848090, “Mechanistic insight into a peptide hormone signaling complex mediating floral organ abscission” (eLife, 2016):
Non-standard residues stand in square brackets, D forms with d. No end group written: not given here. Hyp = O=C(O)[C@@H]1C[C@@H](O)CN1

B1: Arabidopsis thaliana HAESA ectodomain (residues 20–620) (domain or fragment)
chain: SLNQDATILRQAKLGLSDPAQSLSSWSDNNDVTPCKWLGVSCDATSNVVSVDLSSFMLVGPFPSILCHLPSLHSLSLYNNSINGSLSADDFDTCHNLISLDLSENLLVGSIPKSLPFNLPNLKFLEISGNNLSDTIPSSFGEFRKLESLNLAGNFLSGTIPASLGNVTTLKELKLAYNLFSPSQIPSQLGNLTELQVLWLAGCNLVGPIPPSLSRLTSLVNLDLTFNQLTGSIPSWITQLKTVEQIELFNNSFSGELPESMGNMTTLKRFDASMNKLTGKIPDNLNLLNLESLNLFENMLEGPLPESITRSKTLSELKLFNNRLTGVLPSQLGANSPLQYVDLSYNRFSGEIPANVCGEGKLEYLILIDNSFSGEISNNLGKCKSLTRVRLSNNKLSGQIPHGFWGLPRLSLLELSDNSFTGSIPKTIIGAKNLSNLRISKNRFSGSIPNEIGSLNGIIEISGAENDFSGEIPESLVKLKQLSRLDLSKNQLSGEIPRELRGWKNLNELNLANNHLSGEIPKEVGILPVLNYLDLSSNQFSGEIPLELQNLKLNVLNLSYNHLSGKIPPLYANKIYAHDFIGNPGLCVDLDGLCRKITRSK
modifications: N-glycans (glycoprotein of ~75 kDa)

Key:
[1] = molecular target: B1; test: ITC
[2] = molecular target: T1, Arabidopsis thaliana SERK1 ectodomain (residues 24–213, Asn115→Asp and Asn163→Gln) (Arabidopsis thaliana, UniProt Q94AG2 24-213, Asn115→Asp | Asn163→Gln); test: ITC; in presence of IDA
T1 sequence: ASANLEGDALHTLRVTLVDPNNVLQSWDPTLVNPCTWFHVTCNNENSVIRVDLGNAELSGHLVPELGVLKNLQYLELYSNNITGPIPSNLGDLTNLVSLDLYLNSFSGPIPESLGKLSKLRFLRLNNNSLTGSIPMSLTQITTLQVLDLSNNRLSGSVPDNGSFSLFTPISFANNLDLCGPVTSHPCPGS

[3] = molecular target: T2, 1:1 HAESA – SERK1 ectodomain mixture (Arabidopsis thaliana, UniProt P47735 20-620; Q94AG2 24-213, Asn115→Asp | Asn163→Gln, N-glycans); test: ITC; 150 μM wild-type or mutant IDA peptide in the syringe, 10 μM of a 1:1 HAESA – SERK1 protein mixture in the cell; 25°C; 20 mM citric acid pH 5.0, 100 mM NaCl; settings: both partners purified
T2 construct: HAESA, Arabidopsis thaliana, ectodomain residues 20–620; SERK1, Arabidopsis thaliana, ectodomain residues 24–213; they are the content of the ITC cell into which the peptides were titrated; also called HAESA/SERK1 protein solution; HAESA - SERK1 mixture; source: Trichoplusia ni Tnao38 cells (baculovirus), each ectodomain expressed and purified separately, then mixed 1:1; not …
T2 sequence (looked up) 1: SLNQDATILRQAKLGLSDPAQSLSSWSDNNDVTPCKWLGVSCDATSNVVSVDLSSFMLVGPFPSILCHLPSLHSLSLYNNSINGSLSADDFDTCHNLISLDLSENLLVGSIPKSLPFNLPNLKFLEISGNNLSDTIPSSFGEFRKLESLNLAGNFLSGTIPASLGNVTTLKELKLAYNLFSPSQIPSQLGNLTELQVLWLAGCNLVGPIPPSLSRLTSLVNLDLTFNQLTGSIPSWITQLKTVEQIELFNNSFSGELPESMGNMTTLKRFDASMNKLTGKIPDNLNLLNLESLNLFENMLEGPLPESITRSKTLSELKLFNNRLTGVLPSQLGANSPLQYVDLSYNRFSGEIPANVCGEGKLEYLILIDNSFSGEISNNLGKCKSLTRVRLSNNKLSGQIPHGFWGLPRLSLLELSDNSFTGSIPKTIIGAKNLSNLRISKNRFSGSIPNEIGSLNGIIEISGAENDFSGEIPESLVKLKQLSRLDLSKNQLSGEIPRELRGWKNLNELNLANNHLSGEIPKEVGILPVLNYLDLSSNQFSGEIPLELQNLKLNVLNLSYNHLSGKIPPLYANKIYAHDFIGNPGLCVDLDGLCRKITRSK
T2 sequence (looked up) 2: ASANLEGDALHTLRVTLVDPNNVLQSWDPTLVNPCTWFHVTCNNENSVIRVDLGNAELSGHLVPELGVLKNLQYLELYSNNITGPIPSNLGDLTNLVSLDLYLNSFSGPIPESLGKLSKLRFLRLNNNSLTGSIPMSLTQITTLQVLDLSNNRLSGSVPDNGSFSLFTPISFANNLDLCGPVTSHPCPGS

[4] = molecular target: T3, Arabidopsis thaliana HAESA ectodomain (residues 20–620) (Arabidopsis thaliana, UniProt P47735 20-620, N-glycans (glycoprotein of ~75 kDa)); test: crystal structure; apo HAESA ectodomain crystals soaked in crystallization buffer with 15 mM synthetic peptide; settings: both partners purified
T3 construct: HAESA, leucine-rich repeat receptor kinase, Arabidopsis thaliana, ectodomain residues 20–620; Synthetic gene, codon optimized; the vector provides an azurocidin signal peptide for secretion; also called HAESA LRR domain; HAESA LRR ectodomain; not shown: Strep, C-terminal, cleaved; 9xHis, C-terminal, cleaved
T3 sequence (looked up): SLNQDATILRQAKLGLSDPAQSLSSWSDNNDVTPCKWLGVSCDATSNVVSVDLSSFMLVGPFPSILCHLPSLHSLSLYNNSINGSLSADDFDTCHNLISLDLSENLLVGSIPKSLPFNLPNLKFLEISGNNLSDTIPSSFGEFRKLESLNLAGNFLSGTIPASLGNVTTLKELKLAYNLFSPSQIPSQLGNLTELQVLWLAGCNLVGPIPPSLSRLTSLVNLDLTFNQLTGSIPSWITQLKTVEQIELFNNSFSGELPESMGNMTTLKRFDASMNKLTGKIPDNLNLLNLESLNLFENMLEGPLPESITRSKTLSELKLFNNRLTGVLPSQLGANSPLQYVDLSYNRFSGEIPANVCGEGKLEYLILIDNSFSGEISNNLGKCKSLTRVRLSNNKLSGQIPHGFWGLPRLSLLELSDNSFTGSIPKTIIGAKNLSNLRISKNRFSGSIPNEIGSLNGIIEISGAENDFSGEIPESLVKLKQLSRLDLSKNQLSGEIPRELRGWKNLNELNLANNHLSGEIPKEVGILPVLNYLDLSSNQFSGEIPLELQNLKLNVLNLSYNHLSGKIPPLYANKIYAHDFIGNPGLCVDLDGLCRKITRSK

[5] = molecular target: T4, 1:1 HAESA – SERK1 ectodomain mixture (Arabidopsis thaliana, UniProt P47735 20-620; Q94AG2 24-213, Asn115→Asp | Asn163→Gln, N-glycans); test: ITC; HAESA - SERK1 mixture in cell
T4 sequence 1: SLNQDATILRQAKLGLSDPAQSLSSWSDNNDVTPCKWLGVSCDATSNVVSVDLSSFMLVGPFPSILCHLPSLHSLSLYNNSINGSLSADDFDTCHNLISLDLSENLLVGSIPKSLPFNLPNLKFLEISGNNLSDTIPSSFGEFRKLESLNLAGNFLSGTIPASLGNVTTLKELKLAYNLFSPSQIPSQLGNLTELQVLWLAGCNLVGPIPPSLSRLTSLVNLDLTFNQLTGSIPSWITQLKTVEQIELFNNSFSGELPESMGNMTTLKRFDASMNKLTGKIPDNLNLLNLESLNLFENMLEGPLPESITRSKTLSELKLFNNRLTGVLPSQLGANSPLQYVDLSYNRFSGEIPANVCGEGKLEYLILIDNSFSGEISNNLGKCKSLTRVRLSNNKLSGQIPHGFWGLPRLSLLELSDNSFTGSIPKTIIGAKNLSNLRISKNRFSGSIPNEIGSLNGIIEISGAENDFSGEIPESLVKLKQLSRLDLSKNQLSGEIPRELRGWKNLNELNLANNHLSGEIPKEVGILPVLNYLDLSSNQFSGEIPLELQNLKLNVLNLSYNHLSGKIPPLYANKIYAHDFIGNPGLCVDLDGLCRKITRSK
T4 sequence 2: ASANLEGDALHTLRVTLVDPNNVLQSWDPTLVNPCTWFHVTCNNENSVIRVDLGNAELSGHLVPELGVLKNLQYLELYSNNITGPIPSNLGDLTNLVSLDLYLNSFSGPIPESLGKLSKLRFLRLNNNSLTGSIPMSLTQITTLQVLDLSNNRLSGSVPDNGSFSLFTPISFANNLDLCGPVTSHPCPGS

Row | Binder | Kd [1] [µM] | binding result [4] | further results
1 | YLVPPSG[Hyp]SMRHN [synthetic IDL1 peptide YLVPPSG-Hyp-SMRHN (ITC)] | 135 | – | –
2 | B1 | – | – | Kd [2]: 0.075 µM
3 | YVPIPPSA[Hyp]SAAHN (INFLORESCENCE DEFICIENT IN ABSCISSION (IDA), Arabidopsis thaliana; as the IDA stretch of m3 with the two changes; also called IDA K66A/R67A; IDA K66A/R66A; source: synthetic peptide) [synthetic Lys66/Arg67 → Ala mutant IDA peptide] | – | – | fold reduced binding affinity against wild-type IDA [3]: 10 fold
4 | PIPPSA[Hyp]SKRHN (INFLORESCENCE DEFICIENT IN ABSCISSION (IDA), Arabidopsis thaliana, residues 58-69; Hyp written as P; also called dodecamer peptide; source: synthetic peptide) [synthetic IDA peptide PIPPSA-Hyp-SKRHN (crystal soak)] | – | binds | –
5 | YPKGVPIPPSA[Hyp]SKRHN (N-terminal Tyr; INFLORESCENCE DEFICIENT IN ABSCISSION (IDA), Arabidopsis thaliana; Hyp written as P; also called N-terminally extended IDA peptide; source: synthetic peptide) [synthetic PKGV-IDA peptide YPKGVPIPPSA-Hyp-SKRHN] | 25 | binds | –
6 | YVPIPPSA[Hyp]SKRHN (N-terminal Tyr residue added to allow for peptide quantification by UV absorbance; INFLORESCENCE DEFICIENT IN ABSCISSION (IDA), Arabidopsis thaliana; Hyp written as P; Used in ITC and for the HAESA-IDA-SERK1 complex that was crystallised; also called wild-type IDA; IDA wild-type; source: synthetic peptide) [synthetic IDA peptide YVPIPPSA-Hyp-SKRHN] | – | – | fold higher binding affinity than for HAESA alone [3]: ~60 fold; Kd [5]: 0.35 µM
